The record followed here is paper PMC12557367, ““Precision on Two Wheels”–Structural Refinement of ^64Cu- and ^68Ga-Labeled Bicyclic Peptides Targeting Nectin‑4 for Improved Tumor Imaging: From Preclinical Development to First-in-Human Application” (Journal of Medicinal Chemistry, 2025).

Numbered stars: 1 amine (or outer) side, 2 acyl side, 3 side chain; on linkers, the order of the positions; unused ones are H or OH. Bridge positions count the residues as written; N and C are the ends. Square brackets hold non-standard residues; d marks the D form. * marks the point of attachment. 6‑TAMRA = CN(C)c1ccc2c(-c3cc(C(=O)*)ccc3C(=O)[O-])c3ccc(N(C)C)cc3[o+]c2c1; (R)‑NODAGA = O=C(O)CN1CCN(CC(=O)O)CCN([C@H](CCC(=O)*)C(=O)O)CC1; 6FAM = O=C1OC2(c3ccc(O)cc3Oc3cc(O)ccc32)c2cc(C(=O)*)ccc21; DOTA = O=C(O)CN1CCN(CC(=O)O)CCN(CC(=O)*)CCN(CC(=O)O)CC1; TATA = O=C(CC[*:1])N1CN(C(=O)CC[*:2])CN(C(=O)CC[*:3])C1; Mox = methoxinine, COCC[C@H](N[*:1])C(=O)[*:2]; 1Nal = N[C@@H](Cc1cccc2ccccc12)C(=O)O; 2Nal = N[C@@H](Cc1ccc2ccccc2c1)C(=O)O; Hyp = O=C(O)[C@@H]1C[C@@H](O)CN1; hArg = N=C(N)NCCCC[C@H](N)C(=O)O

For assay [1], the target named is T1, recombinant human nectin-4 (human, UniProt Q96NY8 32-349).
T1 construct: nectin-4, human, recombinant; also called complete extracellular domain of nectin-4; source: bought: R&D Systems (Catalog number 2659-N4)
T1 sequence (looked up): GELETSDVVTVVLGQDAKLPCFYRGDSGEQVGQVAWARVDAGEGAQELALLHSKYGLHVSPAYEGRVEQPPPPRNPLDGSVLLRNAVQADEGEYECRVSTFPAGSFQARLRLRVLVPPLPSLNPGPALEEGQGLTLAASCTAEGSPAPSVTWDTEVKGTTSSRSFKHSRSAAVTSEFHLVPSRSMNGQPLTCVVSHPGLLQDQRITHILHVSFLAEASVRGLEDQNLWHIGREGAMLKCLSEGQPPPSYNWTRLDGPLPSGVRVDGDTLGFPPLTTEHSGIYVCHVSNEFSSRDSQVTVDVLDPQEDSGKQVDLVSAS
Kind of assay: fluorescence polarisation; fluorescence anisotropy, direct binding: 1 nM fluorescent probe, 11 to 13 concentrations of nectin-4 (e.g. 0.06-250 nM), 37 °C, 1200 s, HEPES buffer 20 mM pH 7.4, 0.01% Tween20, NaCl, 1% DMSO; Morrison equation. As to conditions: both partners purified.

The target of assay [2] is T2, nectin-4 on intact HT-1376 cells (human (endogenous in HT-1376), UniProt Q96NY8 32-510).
T2 construct: also called cellular nectin-4
T2 sequence (looked up): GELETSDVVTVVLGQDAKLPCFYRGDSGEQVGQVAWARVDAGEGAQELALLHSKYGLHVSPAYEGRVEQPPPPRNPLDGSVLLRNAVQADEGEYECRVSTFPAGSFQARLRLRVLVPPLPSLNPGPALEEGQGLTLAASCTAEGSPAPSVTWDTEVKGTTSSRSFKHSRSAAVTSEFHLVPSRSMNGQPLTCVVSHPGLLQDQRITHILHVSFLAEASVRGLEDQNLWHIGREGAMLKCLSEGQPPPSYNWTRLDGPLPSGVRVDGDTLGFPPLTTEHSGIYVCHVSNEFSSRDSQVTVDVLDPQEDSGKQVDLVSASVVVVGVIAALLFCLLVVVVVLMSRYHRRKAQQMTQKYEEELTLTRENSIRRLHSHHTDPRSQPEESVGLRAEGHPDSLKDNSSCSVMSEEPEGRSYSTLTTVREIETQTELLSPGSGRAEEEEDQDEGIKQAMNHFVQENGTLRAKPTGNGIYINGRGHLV
Kind of assay: radioligand binding; cellular efflux: release of [64Cu]Cu-4 from intact HT-1376 cells over 4 h at 37 °C after 1 h incubation at 10 nM; two-phase decay. Conditions: one partner purified.

The target of assay [3] is T2, nectin-4 on intact HT-1376 cells. Nature of the assay: radioligand binding; saturation binding on intact HT-1376 cells, 10 radioligand concentrations (0.156-80 or 0.321-160 nM), 37 °C, 1 h, PBS wash; nonspecific with 1 µM 1d; apparent (covers binding and putative internalisation). As to conditions: one partner purified.
For assay [4], the target named is T3, recombinant N-terminal Ig-like V domain of nectin-4 (human).
T3 construct: nectin-4, N-terminal Ig-like V domain, recombinant; source: bought: Acro Biosystems (NE4-H82Ea)
Kind of assay: fluorescence polarisation; fluorescence anisotropy, direct binding of probe 1a to the N-terminal Ig-like V domain of nectin-4; same procedure as for nectin-4. Conditions: both partners purified.

In assay [5] the target is T2, nectin-4 on intact HT-1376 cells. Nature of the assay: radioligand binding; intact HT-1376 cells, 10 nM radioligand, 37 °C, 1 h, PBS wash; nonspecific binding with 1 µM 1d (3a for [68Ga]Ga-8d); specific binding in fmol/mg protein. As to conditions: one partner purified.

T3 sequence (Q96NY8 whole entry): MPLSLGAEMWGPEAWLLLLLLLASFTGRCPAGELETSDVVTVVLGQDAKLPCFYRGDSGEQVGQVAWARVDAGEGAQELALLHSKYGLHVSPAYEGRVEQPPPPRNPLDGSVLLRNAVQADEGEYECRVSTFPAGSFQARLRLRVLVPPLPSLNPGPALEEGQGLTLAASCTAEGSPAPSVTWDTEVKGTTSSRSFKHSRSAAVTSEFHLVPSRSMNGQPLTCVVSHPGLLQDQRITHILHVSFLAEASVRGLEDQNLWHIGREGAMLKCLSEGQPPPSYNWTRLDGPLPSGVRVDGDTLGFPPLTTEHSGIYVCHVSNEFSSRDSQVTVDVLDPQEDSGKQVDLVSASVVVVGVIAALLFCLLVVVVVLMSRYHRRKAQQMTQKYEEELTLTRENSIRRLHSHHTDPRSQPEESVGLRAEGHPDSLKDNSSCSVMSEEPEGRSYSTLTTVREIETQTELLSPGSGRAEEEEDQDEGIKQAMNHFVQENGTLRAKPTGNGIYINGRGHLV

B1: 1b (peptide)
chain: 6FAM-CP[1Nal][dD]CM[hArg]DWSTP[Hyp]WC-NH2
modifications: linker 1-5-15 via TATA
Turning to B1, in assay [1], the Kd came out at 0.17 ± 0.01 nM.

B2: [64Cu]Cu-4 (peptide)
chain: {(R)‑NODAGA}-CP[1Nal][dD]C[Mox][hArg]DWSTP[Hyp]WC-NH2
modifications: linker 1-5-15 via TATA; also: NODAGA complexed with 64Cu
On to B2, for which, in assay [2], the “half-life of the fast phase of cellular release” value was found to be 9.5 min. The Kd in assay [3] was 6.06 nM.

B3: 1a (peptide)
chain: {6‑TAMRA}-CP[1Nal][dD]CM[hArg]DWSTP[Hyp]WC-NH2
modifications: linker 1-5-15 via TATA
As to B3, the Kd stood at 1.3 nM in assay [4] and 0.94 ± 0.09 nM in assay [1].

B4: [68Ga]Ga-8c (peptide)
chain: {DOTA}-CP[2Nal][dD]CMRDWSTP[Hyp]WC-NH2
modifications: linker 1-5-15 via TATA; also: DOTA complexed with 68Ga
Regarding B4, the “specific cell binding at 10 nM radioligand” value in assay [5] came out at 38.4 fmol/mg. Also, in assay [3], the Kd amounted to 103 nM.

B5: 8b (peptide)
chain: 6FAM-CP[2Nal][dD]CMRDWSTP[Hyp]WC-NH2
modifications: linker 1-5-15 via TATA
Consider B5, for which the Kd in assay [1] came to 1.38 ± 0.06 nM.
